Data set [1] deals with T1, GLP1R-L-G (human GLP-1 receptor) (Homo sapiens, UniProt P43220).
T1 construct: ID; expressed in transfected cells; host or cells: HEK cells, transient
As to the kind of experiment: BRET assay, HEK cells transiently co-transfected with GLP1R-L-G and a Gγ construct. In kind it is cell-based. The note with it: cells coexpressing GLP1R-L-G and the Gγ construct, exposed to GLP-1. For orientation: BRET reads energy transfer from a luciferase to a nearby fluorophore.

Data set [2] has as its target T2, M4R-GLG2 (human muscarinic acetylcholine receptor M4) (Homo sapiens, UniProt P08173).
T2 construct: ID; NOs; expressed in transfected cells; host or cells: HEK cells, transient
As to the kind of experiment: BRET assay, HEK cells transiently co-transfected with M4R-GLG2 and a Gγ construct. The format is cell-based. Further details: key to the marks not given beside the values. The note with it: cells coexpressing M4R-GLG2 and the Gγ construct, exposed to ACh.

The target of data set [3] is T3, GIPR-L-G (human GIP receptor) (Homo sapiens, UniProt P48546).
T3 construct: ID; NOs; expressed in transfected cells; host or cells: HEK cells, transient
As to the kind of experiment: BRET assay, HEK cells transiently co-transfected with GIPR-L-G and a Gγ construct. The format is cell-based. Particulars: cells coexpressing GIPR-L-G and the Gγ construct, exposed to GIP.

The target of data set [4] is T4, A2AR-RGL (human A2A receptor) (Homo sapiens, UniProt P29274).
T4 construct: ID; NOs; expressed in transfected cells; host or cells: HEK cells, transient
Briefly: BRET assay, HEK cells transiently co-transfected with A2AR-RGL and a Gγ construct. In kind it is cell-based. Also on record: key to the marks not given beside the values. Particulars: cells coexpressing A2AR-RGL and the Gγ construct, exposed to Adenosine.

Data set [5] concerns the target T5, GCGR-RLG (glucagon receptor) (Homo sapiens, UniProt P47871).
T5 construct: 39; GCGR; RLG; Gαs; 94, 95; FP-Gγ9; 3, 4; 15; expressed in transfected cells; host or cells: HEK cells, transient
As to the kind of experiment: BRET assay, HEK cells transiently co-transfected with GCGR-RLG and a Gγ construct. Particulars: cells coexpressing GCGR-RLG and the Gγ construct, exposed to Glucagon. Further details: key to the marks not given beside the values. The format is cell-based.

A further data set deals with T6, GHSR-RLG (hGHSR) (Homo sapiens, UniProt Q92847).
T6 construct: 37; hGHSR; RLG; Gαq; 90, 91; FP-Gγ9; 3, 4; 13; expressed in transfected cells; host or cells: HEK cells, transient
Briefly: BRET assay, HEK cells transiently co-transfected with GHSR-RLG and a Gγ construct. The format is cell-based. The note with it: cells coexpressing GHSR-RLG and the Gγ construct, exposed to Ghrelin. Further details: key to the marks not given beside the values.

In data set [6] the target is T7, M1R-GLG3 (human M1 receptor) (Homo sapiens, UniProt P11229).
T7 construct: 35; hM1R; RGLG-3; Gαq; 86, 87; FP-Gγ9; 3, 4; 11A, 11B; expressed in transfected cells; host or cells: HEK cells, transient
T7 sequence (P11229 with tags, fused parts or gaps): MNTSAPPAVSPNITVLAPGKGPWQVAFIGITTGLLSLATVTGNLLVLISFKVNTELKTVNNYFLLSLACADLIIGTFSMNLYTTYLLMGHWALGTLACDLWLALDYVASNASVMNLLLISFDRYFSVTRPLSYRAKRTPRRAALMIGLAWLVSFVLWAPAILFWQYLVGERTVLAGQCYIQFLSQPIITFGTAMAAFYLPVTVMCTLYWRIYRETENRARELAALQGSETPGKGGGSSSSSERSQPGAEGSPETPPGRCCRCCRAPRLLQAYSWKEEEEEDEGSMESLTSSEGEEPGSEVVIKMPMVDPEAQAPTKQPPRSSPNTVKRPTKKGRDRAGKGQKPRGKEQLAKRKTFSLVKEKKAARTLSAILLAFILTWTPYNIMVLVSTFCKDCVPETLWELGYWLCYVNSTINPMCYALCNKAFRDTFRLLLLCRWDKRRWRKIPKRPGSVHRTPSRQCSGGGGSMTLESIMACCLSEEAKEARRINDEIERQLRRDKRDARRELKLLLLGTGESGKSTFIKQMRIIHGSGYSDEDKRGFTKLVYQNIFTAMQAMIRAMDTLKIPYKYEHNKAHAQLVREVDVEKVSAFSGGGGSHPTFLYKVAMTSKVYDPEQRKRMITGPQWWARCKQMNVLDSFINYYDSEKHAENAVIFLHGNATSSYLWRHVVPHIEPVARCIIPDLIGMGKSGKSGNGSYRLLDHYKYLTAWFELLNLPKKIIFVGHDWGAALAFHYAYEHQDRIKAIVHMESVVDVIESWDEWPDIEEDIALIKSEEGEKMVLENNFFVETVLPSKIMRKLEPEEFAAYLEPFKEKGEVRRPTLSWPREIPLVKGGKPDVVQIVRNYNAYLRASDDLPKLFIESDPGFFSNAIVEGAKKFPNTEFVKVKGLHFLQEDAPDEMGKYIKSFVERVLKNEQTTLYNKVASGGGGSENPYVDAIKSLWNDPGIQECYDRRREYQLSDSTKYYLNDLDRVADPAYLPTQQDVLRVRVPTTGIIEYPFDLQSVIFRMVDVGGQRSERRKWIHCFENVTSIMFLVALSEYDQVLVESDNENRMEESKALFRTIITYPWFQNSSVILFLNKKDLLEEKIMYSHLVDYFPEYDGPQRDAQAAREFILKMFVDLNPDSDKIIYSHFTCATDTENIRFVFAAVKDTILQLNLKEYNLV
As to the kind of experiment: BRET assay, HEK cells transiently co-transfected with M1R-GLG3 and a Gγ construct. Also on record: key to the marks not given beside the values. The format is cell-based. The note with it: cells coexpressing M1R-GLG3 and the Gγ construct, exposed to Acetylcholin.

The target in another data set is T8, chimeric M4R (RGLG-2) (Homo sapiens, UniProt P08173).
T8 construct: ID; NOs; expressed in transfected cells
Briefly: BRET assay of the invention, cells co-expressing chimeric M4R (RGLG-2) and FP-Gγ9. The format is cell-based. The note with it: cells incubated over night with 100 ng/ml PTX. As to the method:
The same cells as described for FIG. 10 A were used. […] The decrease of the signal below baseline in the PTX-treated condition confirms a constitutive activity that has been described for the M4R. […]
A typical experiment has the following sequence.
The assay of the present invention was compared with a state of the art calcium based assay. […] In calcium-based assay, a calcium flux is measured in cells co-expressing recombinant M4R and modified Gαq. In the assay in accordance with the present invention, BRET in measured in cells co-expressing a chimeric M4R according to RGLG-2 (construct and cell-line from FIG. 2C, Table 6) and FP-Gγ9 (as described in FIG. 10A). The data represent mean values and they are normalized to the maximal effect of the orthosteric agonist after the subtraction of the basal values.

Data set [7] has as its target T9, M4R RGLG-2 with Gαo C351S (Homo sapiens, UniProt P08173+P09471, C351S).
T9 construct: ID; NOs; expressed in transfected cells
As to the kind of experiment: BRET assay, chimeric M4R with PTX-insensitive mutant (C351S) of Gαo in the RGLG-2 fusion construct. In kind it is cell-based. Particulars: same conditions as FIG. 10B. On the procedure: Cells lines were prepared as described above (Examples 13-34).

Data set [8] concerns the target human M1 receptor (M1R) RGLG-3 (Homo sapiens, UniProt P11229).
Procedure: Cells co-express a construct comprising a human M1 receptor (M1R) fused to a split Gαq protein harboring a luminescent protein (construct RGLG-3, FIG. 2C, Table 6) and the FP-Gγ9 construct (as above).
5 or 10 minutes after the addition of coelenterazine H to the cells, the read plate is placed in the FLIPR tetra and the measurement begins.
A second plate is a compound plate, containing a mix of an agonist at its EC20 or EC80 and candidate agents to be tested if the protocol run on the FLIPR tetra is a one-addition (or co-addition) protocol (as in FIGS. 3A, 3B, 4, 5A, 6, 7B, 7C, 10B, 10C, 11B, 13, 14, 19 and 20). Alternatively, a two-addition protocol can be run on the FLIPR tetra, containing two compound plates, of which the first one usually contains different candidate agents and the second one an agonist at its EC20 or EC80 (as in FIGS. 5B, 5C, 7A, 9, 10A, 11A, 12, 15, 16, and 18). […]
The camera is adjusted in such a way that the gain is set to a maximum of 28,000× and the shutters are opened 100%. […] The read interval (emission filter 1, emission filter 2) is adjusted to the minimal value that results from the addition of the two exposure times (=2×0.1 to 3 seconds) plus the time needed to move the filters from position 1 to position 2 (0.3 sec), resulting in a maximal read frequency of 0.5 seconds (2 Hz). […]
Data set [9] has as its target T10, hM1R fused to split Gαq harbouring a luminescent protein (type RGLG-3).
T10 chain: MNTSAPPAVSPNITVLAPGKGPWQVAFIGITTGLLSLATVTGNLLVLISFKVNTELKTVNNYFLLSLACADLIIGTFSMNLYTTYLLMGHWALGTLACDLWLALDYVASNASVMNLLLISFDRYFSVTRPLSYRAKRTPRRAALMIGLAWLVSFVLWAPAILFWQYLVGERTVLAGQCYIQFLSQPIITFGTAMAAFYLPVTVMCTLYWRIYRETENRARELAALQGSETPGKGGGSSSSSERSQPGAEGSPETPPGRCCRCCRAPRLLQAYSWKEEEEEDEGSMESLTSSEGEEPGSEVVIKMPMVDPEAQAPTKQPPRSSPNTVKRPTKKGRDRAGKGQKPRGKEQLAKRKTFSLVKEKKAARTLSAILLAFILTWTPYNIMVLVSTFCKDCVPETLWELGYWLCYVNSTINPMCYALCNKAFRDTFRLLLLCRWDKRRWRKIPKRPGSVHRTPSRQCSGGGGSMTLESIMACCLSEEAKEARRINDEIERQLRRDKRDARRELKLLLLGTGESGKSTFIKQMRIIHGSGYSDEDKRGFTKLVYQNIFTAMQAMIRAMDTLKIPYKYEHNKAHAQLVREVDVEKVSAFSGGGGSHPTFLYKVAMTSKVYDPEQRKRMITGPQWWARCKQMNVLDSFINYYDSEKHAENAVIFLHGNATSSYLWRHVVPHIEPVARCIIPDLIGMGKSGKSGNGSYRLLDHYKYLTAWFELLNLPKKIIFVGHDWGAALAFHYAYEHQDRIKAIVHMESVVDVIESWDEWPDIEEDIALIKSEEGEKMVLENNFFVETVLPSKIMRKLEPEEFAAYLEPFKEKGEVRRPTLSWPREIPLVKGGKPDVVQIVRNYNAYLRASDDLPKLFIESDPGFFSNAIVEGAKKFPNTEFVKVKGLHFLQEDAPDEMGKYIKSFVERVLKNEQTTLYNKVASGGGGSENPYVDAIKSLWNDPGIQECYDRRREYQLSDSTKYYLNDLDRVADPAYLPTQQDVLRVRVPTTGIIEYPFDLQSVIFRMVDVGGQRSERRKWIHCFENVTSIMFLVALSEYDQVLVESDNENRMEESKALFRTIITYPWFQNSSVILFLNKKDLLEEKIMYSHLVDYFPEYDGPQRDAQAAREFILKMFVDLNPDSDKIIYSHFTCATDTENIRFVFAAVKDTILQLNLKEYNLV

Data set [10] deals with hM4-R RGLG-2 fusion construct with the PTX-insensitive mutant (C351S) of Gαo.
For data set [11], the target named is T11, hM4-R-Gαo^1-91-Luciferase-Gαo^92-354 fusion protein (type RGLG-2).
T11 chain: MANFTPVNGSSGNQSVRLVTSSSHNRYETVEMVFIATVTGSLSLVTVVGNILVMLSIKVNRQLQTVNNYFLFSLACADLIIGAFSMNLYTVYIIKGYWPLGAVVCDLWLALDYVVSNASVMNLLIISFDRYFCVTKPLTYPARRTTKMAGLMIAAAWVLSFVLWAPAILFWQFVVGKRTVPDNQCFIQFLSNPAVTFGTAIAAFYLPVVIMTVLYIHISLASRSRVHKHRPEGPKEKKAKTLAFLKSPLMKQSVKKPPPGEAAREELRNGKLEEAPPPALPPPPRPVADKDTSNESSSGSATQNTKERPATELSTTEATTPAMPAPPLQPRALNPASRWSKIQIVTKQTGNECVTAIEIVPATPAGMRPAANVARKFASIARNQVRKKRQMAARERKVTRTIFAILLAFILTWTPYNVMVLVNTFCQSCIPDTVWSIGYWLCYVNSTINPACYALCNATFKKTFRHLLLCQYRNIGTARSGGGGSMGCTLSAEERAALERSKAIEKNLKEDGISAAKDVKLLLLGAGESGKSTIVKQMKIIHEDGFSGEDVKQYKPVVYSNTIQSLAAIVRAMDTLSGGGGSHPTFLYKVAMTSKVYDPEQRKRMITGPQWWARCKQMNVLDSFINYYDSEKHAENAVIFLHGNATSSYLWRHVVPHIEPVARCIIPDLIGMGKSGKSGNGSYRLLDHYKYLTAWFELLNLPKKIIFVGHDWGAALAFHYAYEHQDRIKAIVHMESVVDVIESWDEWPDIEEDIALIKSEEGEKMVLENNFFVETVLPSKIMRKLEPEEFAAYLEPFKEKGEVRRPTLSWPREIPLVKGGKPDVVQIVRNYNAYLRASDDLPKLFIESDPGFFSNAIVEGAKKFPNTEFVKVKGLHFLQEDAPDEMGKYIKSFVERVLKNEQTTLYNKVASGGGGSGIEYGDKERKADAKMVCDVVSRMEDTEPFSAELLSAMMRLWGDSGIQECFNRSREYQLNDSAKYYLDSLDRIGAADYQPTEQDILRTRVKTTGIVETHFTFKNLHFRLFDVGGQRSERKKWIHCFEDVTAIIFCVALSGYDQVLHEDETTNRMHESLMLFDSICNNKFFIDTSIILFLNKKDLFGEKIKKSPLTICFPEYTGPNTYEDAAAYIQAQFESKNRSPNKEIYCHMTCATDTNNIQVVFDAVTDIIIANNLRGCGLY

T3 sequence (P48546 with tags, fused parts or gaps): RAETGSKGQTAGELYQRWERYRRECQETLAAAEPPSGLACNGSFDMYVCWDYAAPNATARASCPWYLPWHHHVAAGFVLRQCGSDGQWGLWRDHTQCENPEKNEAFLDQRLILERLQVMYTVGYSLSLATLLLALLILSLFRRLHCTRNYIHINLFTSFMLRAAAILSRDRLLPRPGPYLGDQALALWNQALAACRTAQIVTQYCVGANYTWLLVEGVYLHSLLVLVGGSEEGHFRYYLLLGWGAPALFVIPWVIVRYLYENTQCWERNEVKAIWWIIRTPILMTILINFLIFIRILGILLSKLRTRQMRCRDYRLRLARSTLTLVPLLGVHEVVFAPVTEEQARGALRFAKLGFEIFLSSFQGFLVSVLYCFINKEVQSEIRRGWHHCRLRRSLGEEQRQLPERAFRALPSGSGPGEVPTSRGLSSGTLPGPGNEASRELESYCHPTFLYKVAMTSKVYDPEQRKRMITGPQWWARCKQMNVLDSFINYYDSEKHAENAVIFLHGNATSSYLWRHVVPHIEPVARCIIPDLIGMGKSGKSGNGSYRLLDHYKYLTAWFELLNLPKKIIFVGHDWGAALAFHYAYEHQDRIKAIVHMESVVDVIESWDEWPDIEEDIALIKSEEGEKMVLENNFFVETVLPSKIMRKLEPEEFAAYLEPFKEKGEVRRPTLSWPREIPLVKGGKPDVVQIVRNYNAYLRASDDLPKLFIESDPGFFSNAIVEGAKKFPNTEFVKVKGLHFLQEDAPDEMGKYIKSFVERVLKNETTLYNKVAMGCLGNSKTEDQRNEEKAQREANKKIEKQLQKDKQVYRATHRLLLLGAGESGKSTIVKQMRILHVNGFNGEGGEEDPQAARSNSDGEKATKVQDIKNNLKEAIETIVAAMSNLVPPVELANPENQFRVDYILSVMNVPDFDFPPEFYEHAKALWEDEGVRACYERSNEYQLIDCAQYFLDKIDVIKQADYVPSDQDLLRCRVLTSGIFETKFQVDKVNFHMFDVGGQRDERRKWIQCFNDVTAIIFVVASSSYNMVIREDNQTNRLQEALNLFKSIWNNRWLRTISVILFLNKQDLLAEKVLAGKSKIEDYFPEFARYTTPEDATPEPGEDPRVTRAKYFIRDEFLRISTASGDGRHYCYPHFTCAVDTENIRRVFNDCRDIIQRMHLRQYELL
T5 sequence (P47871 with tags, fused parts or gaps): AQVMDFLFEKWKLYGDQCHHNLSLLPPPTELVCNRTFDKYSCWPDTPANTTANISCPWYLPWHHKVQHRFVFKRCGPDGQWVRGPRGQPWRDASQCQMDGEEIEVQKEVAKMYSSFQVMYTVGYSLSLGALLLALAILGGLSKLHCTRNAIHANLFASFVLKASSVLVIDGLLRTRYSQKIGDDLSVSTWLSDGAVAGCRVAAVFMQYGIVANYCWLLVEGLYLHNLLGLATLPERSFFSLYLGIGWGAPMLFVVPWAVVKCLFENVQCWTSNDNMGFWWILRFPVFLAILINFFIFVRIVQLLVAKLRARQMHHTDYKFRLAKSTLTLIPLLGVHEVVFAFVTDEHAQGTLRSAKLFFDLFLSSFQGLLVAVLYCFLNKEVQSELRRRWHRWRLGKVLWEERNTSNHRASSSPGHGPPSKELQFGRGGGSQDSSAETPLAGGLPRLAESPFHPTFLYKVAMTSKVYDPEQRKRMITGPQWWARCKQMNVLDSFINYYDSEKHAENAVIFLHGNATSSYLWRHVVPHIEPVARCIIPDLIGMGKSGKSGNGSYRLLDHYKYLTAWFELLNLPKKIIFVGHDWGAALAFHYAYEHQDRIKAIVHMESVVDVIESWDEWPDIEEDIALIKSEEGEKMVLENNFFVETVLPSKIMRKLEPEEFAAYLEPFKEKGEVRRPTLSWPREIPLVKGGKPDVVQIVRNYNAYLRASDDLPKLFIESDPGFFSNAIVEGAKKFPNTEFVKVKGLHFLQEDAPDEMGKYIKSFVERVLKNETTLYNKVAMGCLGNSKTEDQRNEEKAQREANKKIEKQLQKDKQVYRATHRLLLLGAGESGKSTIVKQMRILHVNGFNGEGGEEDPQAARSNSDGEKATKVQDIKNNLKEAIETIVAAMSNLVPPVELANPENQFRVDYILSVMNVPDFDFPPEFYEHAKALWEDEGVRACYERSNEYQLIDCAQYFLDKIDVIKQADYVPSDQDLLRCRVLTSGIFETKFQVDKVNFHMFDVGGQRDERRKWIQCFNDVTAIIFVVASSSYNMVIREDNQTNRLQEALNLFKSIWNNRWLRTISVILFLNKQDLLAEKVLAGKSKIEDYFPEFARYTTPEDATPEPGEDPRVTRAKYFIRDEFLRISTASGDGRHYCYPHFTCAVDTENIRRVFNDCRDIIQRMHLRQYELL
T1 sequence (P43220 with tags, fused parts or gaps): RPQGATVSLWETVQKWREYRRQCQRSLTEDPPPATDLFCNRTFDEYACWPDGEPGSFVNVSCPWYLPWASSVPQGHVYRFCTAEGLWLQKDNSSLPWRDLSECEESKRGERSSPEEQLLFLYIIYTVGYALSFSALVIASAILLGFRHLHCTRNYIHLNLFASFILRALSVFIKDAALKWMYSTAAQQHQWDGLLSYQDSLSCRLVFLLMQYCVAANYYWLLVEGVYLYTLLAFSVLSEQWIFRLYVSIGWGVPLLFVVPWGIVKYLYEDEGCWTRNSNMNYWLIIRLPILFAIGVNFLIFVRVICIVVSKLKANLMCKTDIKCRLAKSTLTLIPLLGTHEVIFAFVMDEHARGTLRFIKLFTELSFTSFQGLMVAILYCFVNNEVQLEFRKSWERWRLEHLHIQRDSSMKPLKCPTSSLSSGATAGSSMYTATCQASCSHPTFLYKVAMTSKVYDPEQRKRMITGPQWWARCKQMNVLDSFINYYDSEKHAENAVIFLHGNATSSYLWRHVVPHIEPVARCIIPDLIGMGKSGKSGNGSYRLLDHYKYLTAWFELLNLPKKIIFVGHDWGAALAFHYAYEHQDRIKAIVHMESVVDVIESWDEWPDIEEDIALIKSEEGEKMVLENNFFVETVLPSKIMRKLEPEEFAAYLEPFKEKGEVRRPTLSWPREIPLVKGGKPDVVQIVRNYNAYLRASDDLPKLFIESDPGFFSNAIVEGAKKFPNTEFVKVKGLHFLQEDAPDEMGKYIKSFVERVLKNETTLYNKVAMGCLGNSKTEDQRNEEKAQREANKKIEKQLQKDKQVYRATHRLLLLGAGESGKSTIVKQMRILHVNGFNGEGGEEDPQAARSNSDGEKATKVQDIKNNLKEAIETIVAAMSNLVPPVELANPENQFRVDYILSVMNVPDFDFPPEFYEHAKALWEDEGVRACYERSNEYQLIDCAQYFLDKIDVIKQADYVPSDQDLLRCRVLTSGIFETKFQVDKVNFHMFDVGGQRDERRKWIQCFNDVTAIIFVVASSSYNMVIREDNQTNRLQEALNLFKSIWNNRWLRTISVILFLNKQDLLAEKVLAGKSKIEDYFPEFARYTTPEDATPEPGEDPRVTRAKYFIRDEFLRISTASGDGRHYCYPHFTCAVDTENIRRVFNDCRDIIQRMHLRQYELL
T9 sequence (P08173+P09471 fused P09471:C351S): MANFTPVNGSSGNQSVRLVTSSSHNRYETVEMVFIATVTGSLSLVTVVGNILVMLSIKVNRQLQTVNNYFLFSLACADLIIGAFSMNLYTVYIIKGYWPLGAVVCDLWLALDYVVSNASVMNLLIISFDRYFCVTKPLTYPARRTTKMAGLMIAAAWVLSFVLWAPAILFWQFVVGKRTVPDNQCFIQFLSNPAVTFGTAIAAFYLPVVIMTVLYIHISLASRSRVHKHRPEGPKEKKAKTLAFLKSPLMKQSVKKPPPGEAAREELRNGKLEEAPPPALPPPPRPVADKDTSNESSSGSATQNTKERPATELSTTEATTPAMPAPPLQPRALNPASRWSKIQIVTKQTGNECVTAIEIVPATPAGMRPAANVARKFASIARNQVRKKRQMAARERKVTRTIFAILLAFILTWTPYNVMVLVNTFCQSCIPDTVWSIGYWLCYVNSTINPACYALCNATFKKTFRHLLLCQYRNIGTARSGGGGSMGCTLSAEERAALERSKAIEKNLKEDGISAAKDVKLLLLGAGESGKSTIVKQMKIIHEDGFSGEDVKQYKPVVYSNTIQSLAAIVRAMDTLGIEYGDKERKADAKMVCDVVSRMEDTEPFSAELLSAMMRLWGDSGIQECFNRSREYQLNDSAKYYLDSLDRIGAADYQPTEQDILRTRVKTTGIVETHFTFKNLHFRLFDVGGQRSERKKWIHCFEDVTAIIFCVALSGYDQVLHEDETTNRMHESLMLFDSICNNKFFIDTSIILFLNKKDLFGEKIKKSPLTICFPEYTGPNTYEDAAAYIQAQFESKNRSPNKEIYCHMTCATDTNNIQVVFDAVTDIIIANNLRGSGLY

On to “FP-Gγ9: fusion protein of yellow fluorescent protein YPet and human G-protein gamma9, SEQ. ID. NOs. 3, 4”, for which the HTS compat. entry (in [1]; in data set [2]; in [3]; in [4]; in [5]; in the data set with GHSR-RLG (hGHSR)) was “++” throughout. In addition, in data set [6], the HTS compat. result is “++”.

For the molecule PTX, the “effect on BRET signal changes in response to Ach” value is reported as “effectively blocks the BRET signal changes” with chimeric M4R (RGLG-2) and “no effect on the BRET signal changes” in data set [8]. Moreover, the “effect on BRET signal changes in response to Ach, C351S Gαo mutant” value in data set [7] was “rescued by the C351S substitution”.

B1: Bordetella pertussis toxin (protein)
chain: DDPPATVYRYDSRPPEDVFQNGFTAWGNNDNVLDHLTGRSCQVGSSNSAFVSTSSSRRYTEVYLEHRMQEAVEAERAGRGTGHFIGYIYEVRADNNFYGAASSYFEYVDTYGDNAGRILAGALATYQSEYLAHRRIPPENIRRVTRVYHNGITGETTTTEYSNARYVSQQTRANPNPYTSRRSVASIVGTLVRMAPVIGACMARQAESSEAMAAWSERAGEAMVLVYYESIAYSF
B1: the “BRET signal change in response to acetylcholine after overnight incubation with PTX” value in data set [9] is given as “shows no effect on the BRET signal changes obtained in response to Ach”; in [10], “The Gαo-inhibiting effects of PTX are rescued by the C351S substitution”. The “BRET signal change in response to acetylcholine after overnight incubation with 100 ng/ml PTX” value in data set [11] is “PTX effectively blocks the BRET signal changes compared to the non-PTX treated condition”.
